This assay deals with Hemagglutinin of influenza A/Solomon Islands/3/06 (H1N1), on inactivated whole virions (Influenza A virus A/Solomon …). As to the kind of experiment: ELISA, B cell culture supernatant on inactivated whole virions.

B1: TCN-560 (5084_P10) (antibody, V domains shown)
VH: EVQLVESGGGLVQPGGSLRLSCAASGFIFRNYWMSWVRQAPGKGLEWVANIKQDGREKYYVDSLRGRVNISRDNAENSLYLHMNSLRVEDTAVYFCARARMVVVTGDGFDVWGHGTMVTVSS
VL: DIQMTQSPSSLSASVGDRVTITCRASQNIKRYFNWYQQKPGKAPKLLIYAASNLENGVPSRFSGSGSGTDFTLTISSLQPEDFATYYCQQSFSKSWTFGQGTNVDIK
As to B1, the OD450 came to 3.63 OD450.

The record behind these values is patent publication US20120207760A1 (THERACLONE SCIENCES, published 2012).
